The text below walks through data of patent EP3473709B1, “DNA VECTOR CONTAINING A GENE ENCODING AN EQUINE BUTYRYLCHOLINESTERASE, FOR TRANSFORMATION AND INTEGRATION INTO LEISHMANIA TARENTOLAE CHROMOSOME” (priority 2017, dated 2019).

Series [1] relates to CCCC(=O)SCC[N+](C)(C)C. The series can be described thus: purified protein, by the assay type. Particulars: pH 7.4; 25.0 °C.
In series [2] the target is recombinant equine BChE (butyrylcholinesterase), truncated version devoid of the tetramerization domain, GA-BChE-His, Seq.2, expressed in Leishmania tarentolae (Equus caballus, UniProt Q9N1N9). The series can be described thus: Ellman's method enzymatic activity test (hydrolysis of S-butyrylthiocholine iodide, DTNB, absorbance at 412 nm).

Turning to “recombinant equine BChE (butyrylcholinesterase), truncated version devoid of the tetramerization domain, GA-BChE-His, Seq.2, expressed in Leishmania tarentolae T7-TR (Equus caballus)”, the Km in series [1] was 20 µM.
As to `CN(C)c1ccc2nc3ccc(=[N+](C)C)cc-3sc2c1` [methylene blue], in series [2], the “BChE activity in the presence of different concentrations of methylene blue” value is reported as “inhibited”.

Broadly, the Km is the substrate concentration at which the rate is half of its maximum.
